T1: ECF37_2513
T1 chain: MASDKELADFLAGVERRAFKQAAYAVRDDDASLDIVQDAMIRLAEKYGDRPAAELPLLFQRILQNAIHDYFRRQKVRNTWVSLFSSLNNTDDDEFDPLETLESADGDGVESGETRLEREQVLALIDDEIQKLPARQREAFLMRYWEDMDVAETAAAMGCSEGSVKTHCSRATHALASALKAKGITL

T2: ECF25_1645
T2 chain: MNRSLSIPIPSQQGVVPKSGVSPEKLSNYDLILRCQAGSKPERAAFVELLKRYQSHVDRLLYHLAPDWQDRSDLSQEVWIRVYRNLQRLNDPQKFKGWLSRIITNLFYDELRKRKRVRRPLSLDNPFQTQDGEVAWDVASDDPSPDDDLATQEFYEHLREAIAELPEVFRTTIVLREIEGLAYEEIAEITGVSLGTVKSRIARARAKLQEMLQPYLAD

T3: ECF02_2817
T3 chain: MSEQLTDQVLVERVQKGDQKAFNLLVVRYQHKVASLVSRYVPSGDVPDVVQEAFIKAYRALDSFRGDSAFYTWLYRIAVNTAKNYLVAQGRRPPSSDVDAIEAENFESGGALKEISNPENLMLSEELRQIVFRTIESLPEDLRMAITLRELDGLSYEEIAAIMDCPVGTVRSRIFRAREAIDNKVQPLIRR

T4: ECF11_3726
T4 chain: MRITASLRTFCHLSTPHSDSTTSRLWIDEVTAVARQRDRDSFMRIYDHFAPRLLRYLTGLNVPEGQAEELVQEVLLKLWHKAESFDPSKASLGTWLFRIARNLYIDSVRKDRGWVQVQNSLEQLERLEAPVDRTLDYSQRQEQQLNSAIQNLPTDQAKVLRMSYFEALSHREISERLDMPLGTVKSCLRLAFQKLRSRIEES

T5: ECF16_3622
T5 chain: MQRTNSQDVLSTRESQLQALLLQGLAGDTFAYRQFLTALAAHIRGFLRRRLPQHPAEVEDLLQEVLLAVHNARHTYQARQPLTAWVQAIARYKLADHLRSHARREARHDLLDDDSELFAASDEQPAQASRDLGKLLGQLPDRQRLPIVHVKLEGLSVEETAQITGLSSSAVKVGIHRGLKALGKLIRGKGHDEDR

T6: ECF15_524
T6 chain: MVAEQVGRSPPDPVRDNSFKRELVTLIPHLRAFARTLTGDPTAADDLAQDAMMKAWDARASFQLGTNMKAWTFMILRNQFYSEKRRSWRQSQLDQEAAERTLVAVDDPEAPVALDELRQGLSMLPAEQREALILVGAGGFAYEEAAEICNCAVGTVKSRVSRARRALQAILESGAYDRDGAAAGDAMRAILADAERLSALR

T7: ECF16_973
T7 chain: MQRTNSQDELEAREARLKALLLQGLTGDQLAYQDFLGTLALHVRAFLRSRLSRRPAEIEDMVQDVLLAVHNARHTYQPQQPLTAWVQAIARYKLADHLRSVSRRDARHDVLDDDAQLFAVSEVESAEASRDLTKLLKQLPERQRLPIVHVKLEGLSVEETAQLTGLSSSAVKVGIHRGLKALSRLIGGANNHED

T8: ECF38_1322
T8 chain: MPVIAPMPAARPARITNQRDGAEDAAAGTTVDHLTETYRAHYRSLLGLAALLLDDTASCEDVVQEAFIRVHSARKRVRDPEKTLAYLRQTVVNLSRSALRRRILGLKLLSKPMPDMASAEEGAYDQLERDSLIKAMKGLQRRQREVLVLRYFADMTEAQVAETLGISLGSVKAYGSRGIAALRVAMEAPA

T9: ECF27_4265
T9 chain: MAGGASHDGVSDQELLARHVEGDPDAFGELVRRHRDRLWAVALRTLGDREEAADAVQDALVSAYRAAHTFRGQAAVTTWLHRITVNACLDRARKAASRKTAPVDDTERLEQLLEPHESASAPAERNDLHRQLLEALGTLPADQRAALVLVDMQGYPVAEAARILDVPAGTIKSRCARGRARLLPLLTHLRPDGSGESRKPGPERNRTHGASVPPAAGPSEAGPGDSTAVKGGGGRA

T10: ECF01_3473
T10 chain: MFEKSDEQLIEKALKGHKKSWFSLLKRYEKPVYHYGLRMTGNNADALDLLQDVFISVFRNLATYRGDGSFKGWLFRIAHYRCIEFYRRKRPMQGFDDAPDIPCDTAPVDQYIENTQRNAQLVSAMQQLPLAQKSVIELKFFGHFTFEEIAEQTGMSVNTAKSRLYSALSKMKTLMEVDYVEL

T11: ECF03_1198
T11 chain: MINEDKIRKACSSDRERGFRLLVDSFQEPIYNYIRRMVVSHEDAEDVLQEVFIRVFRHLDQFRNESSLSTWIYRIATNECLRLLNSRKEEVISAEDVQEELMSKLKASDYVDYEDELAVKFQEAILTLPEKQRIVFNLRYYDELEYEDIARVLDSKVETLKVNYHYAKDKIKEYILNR

T12: ECF31_34
T12 chain: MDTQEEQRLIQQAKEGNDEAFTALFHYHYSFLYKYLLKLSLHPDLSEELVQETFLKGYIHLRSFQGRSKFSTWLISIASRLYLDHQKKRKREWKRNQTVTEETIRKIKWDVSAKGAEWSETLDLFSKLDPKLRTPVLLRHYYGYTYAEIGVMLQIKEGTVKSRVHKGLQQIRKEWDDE

T13: ECF14_3200
T13 chain: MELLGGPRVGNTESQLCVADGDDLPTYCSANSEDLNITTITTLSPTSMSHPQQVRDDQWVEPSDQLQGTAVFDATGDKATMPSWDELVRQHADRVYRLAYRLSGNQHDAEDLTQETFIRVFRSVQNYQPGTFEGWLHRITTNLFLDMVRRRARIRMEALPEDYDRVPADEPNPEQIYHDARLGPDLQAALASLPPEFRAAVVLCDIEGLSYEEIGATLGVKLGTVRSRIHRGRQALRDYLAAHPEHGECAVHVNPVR

B1: AS15_524 (protein)
chain: MNFGVEDMIEHVPMEDKRKGAAALDEARLRQQAIGVKLRQMFDEVVNEPVPDEFLAILRKAERPAGGE
B2: AS02_915 (protein)
chain: MEKTGQEWVSASVDGETDRQTLAELAADTDSHAKWQRYHLMGDAMRDELPQAMPLDLSARIAAALEDEPTILAPKVEREATQAPSRAVVVPFMRQLGQYGIAAAVALMAVVGVQNYQSTQDDAPLPVLNTRPLVGTATPVSLQTGPVANQNQGNANDQLLEQRRRINAYLQDHMLQQRLNTGAVVDDNSEVTPIPVNR
B3: AS20_992 (protein)
chain: MTPERFVHLADAYGADLQRWPSAERAAAQALLDCGDAQAVAALRQAHWLDSQLDRYQVPAPSPALAQRIIAAAQQPGAPFWSRYAGWLASLGWVGVGLTGVAAGMLAVALSLPLSTSAEALPSVFDQSDAEFVLSINAEEAEQ
B4: AS15_436 (protein)
chain: MAQSTEPKASPQEATAKGGDNTKGKSRKELQQQIDENLRRVYEEALVQEVPDRFAMLLDQLRQKGTGK
B5: AS14_1324 (protein)
chain: MSGSRPEPEGHLAEQHLGDRLSALVDGELGHDARERVLAHVATCPKCKAEVDAQRRLKNVFAEAAPPAPSESFLARLQGLPGGGDSDGGGSPFSGLPGGFGASAASGVFGPRRDERFEFDYVPAGSHTPVLPSATSGRGFRIHEVGRHESDRSASRGLRFAFAAAGAVSLAAIALGGVTLGTPDTTTEARGSGSGSNVTPLRTPGSAAATGSESQRRRTAGPLLGQGQRALGDLPVASTTASAPLLPGMPAPAGGDARQQAVRALTTPVTAGAAAMSPLIRPLEAVPPLSLSSWSAAPEVRPPGLLAAPDPAPSPYPAASPAASSSPLR
B6: AS16_3622 (protein)
chain: MMKTDELISLLATAEGPVDRHALARRLGLALLAGLLGALLLTVALYGVRSDLAEVARTPLFWAKVALPTSLALLGLWLTQRLARPGVRGGALWGLLGVPLLLVWLGAAISLFGAPPEARADLIFGRTWRTCALNITLLSTPVFIAVFWALRGLAPTRLRQAGAAGGLLAGSTATLVYCLHCPEMGVPFWGLWYLLGMLVPTLLGAVLGPRLLRW
B7: AS16_973 (protein)
chain: MKTDDLIALLAAGEGPVPRHAVGRRMAVAALGGLTAALLLTITLYGVRSDITEVAQTPLFWGKVAFPTSLALIGLWLTSRLARPGGKGAAGWKMLGLPLLLVWCGAAVSIAGAPVDARADLLFGRTWRTCALNIALLSVPAFVTVFWALKGLAPTRLRLAGAAGGLLAGSSATVAYCLHCPEMGVPFWGVWYVLGMLVPTVLGAWWGPRMLRW

Assays:
[1] = molecular target: T1, ECF37_2513
[2] = molecular target: T2, ECF25_1645
[3] = molecular target: T3, ECF02_2817
[4] = molecular target: T4, ECF11_3726
[5] = molecular target: T5, ECF16_3622
[6] = molecular target: T6, ECF15_524
[7] = molecular target: T7, ECF16_973
[8] = molecular target: ECF27_1331
[9] = molecular target: T8, ECF38_1322
[10] = molecular target: T9, ECF27_4265
[11] = molecular target: T10, ECF01_3473
[12] = molecular target: T11, ECF03_1198
[13] = molecular target: T12, ECF31_34
[14] = molecular target: T13, ECF14_3200

Binder	fold repression [1]	fold repression [2]	fold repression [3]	fold repression [4]	fold repression [5]	fold repression [6]	fold repression [7]	fold repression [8]	fold repression [9]	fold repression [10]	fold repression [11]	fold repression [12]	fold repression [13]	fold repression [14]
B1	4.17	3.69	2.65	8.06	7.87	31.4	4.98	11.5	4.8	4.51	9.89	3.92	6.57	12.9
B2	2.48	1.99	5.22	7.44	4.3	2.55	3.34	4.27	2.24	2.08	5.57	3.28	3.89	6.23
B3	1.98	1.3	1.74	1.91	1.71	1.58	1.7	2.11	1.72	1.1	2.3	1.53	1.96	2.04
B4	5.1	1.87	1.58	7.87	6.45	33.1	3.01	4.82	2.66	2.89	4.77	3.84	3.29	9.47
B5	3.89	3.18	2.97	11	6.46	5.32	4.45	8.27	2.76	2.31	8.34	3.58	5.28	35.5
B6	4.97	1.53	1.37	6.84	254	3.36	131	3.55	2.34	1.45	2.63	2.71	2.85	8.73
B7	1.04	0.538	0.448	1.29	57	0.668	58.6	0.929	0.629	0.412	0.602	0.72	0.696	0.918
